Experimental data published in PMC12774657.

What was measured:
[1] = molecular target: HIF2a bHLH-PASA-PASB;ARNT bHLH-PASA-PASB (;) (UniProt Q99814+P27540); assay: EMSA; conditions: EMSA: 10 nM probe, 20 mM Tris pH 8.0, 250 mM NaCl, 16 ug/ml salmon sperm ssDNA, 30 ug/ml BSA, 1.25 mM MgCl2, 6% glycerol, 10 mM DTT, room temperature 30 min …
[2] = molecular target: HIF1a bHLH-PASA-PASB;ARNT bHLH-PASA-PASB (;) (UniProt Q16665+P27540); assay: EMSA; conditions: EMSA: 10 nM probe, 20 mM Tris pH 8.0, 250 mM NaCl, 16 ug/ml salmon sperm ssDNA, 30 ug/ml BSA, 1.25 mM MgCl2, 6% glycerol, 10 mM DTT, room temperature 30 min …

Substance: TACGTG-containing EMSA probe
- binding signal (reference (HIF1a/ARNT ~2 fold higher)) [1]: 1
- binding signal (fold affinity vs HIF2a/ARNT) [2]: 2
